B1: mCh-MreC (natural protein, E. coli, UniProt P16926 1-367, looked up)
chain: MKPIFSRGPSLQIRLILAVLVALGIIIADSRLGTFSQIRTYMDTAVSPFYFVSNAPRELLDGVSQTLASRDQLELENRALRQELLLKNSELLMLGQYKQENARLRELLGSPLRQDEQKMVTQVISTVNDPYSDQVVIDKGSVNGVYEGQPVISDKGVVGQVVAVAKLTSRVLLICDATHALPIQVLRNDIRVIAAGNGCTDDLQLEHLPANTDIRVGDVLVTSGLGGRFPEGYPVAVVSSVKLDTQRAYTVIQARPTAGLQRLRYLLLLWGADRNGANPMTPEEVHRVANERLMQMMPQVLPSPDAMGPKLPEPATGIAQPTPQQPATGNAATAPAAPTQPAANRSPQRATPPQSGAQPPARAPGGQ
B2: mCh-RodA^Q207R (enzyme, E. coli, UniProt P0ABG7 1-370, looked up)
chain: MTDNPNKKTFWDKVHLDPTMLLILLALLVYSALVIWSASGQDIGMMERKIGQIAMGLVIMVVMAQIPPRVYEGWAPYLYIICIILLVAVDAFGAISKGAQRWLDLGIVRFQPSEIAKIAVPLMVARFINRDVCPPSLKNTGIALVLIFMPTLLVAAQPDLGTSILVALSGLFVLFLSGLSWRLIGVAVVLVAAFIPILWFFLMHDYRRQRVMMLLDPESDPLGAGYHIIQSKIAIGSGGLRGKGWLHGTQSQLEFLPERHTDFIFAVLAEELGLVGILILLALYILLIMRGLWIAARAQTTFGRVMAGGLMLILFVYVFVNIGMVSGILPVVGVPLPLVSYGGSALIVLMAGFGIVMSIHTHRKMLSKSV
B3: mCh-RodA^R109A (enzyme, E. coli, UniProt P0ABG7 1-370, looked up)
chain: B2 chain with R109A, R207Q
B4: PBP2 (wild type), fused to mKO or to mCherry (enzyme, E. coli, UniProt P0AD65 1-633, looked up)
chain: MKLQNSFRDYTAESALFVRRALVAFLGILLLTGVLIANLYNLQIVRFTDYQTRSNENRIKLVPIAPSRGIIYDRNGIPLALNRTIYQIEMMPEKVDNVQQTLDALRSVVDLTDDDIAAFRKERARSHRFTSIPVKTNLTEVQVARFAVNQYRFPGVEVKGYKRRYYPYGSALTHVIGYVSKINDKDVERLNNDGKLANYAATHDIGKLGIERYYEDVLHGQTGYEEVEVNNRGRVIRQLKEVPPQAGHDIYLTLDLKLQQYIETLLAGSRAAVVVTDPRTGGVLALVSTPSYDPNLFVDGISSKDYSALLNDPNTPLVNRATQGVYPPASTVKPYVAVSALSAGVITRNTTLFDPGWWQLPGSEKRYRDWKKWGHGRLNVTRSLEESADTFFYQVAYDMGIDRLSEWMGKFGYGHYTGIDLAEERSGNMPTREWKQKRFKKPWYQGDTIPVGIGQGYWTATPIQMSKALMILINDGIVKVPHLLMSTAEDGKQVPWVQPHEPPVGDIHSGYWELAKDGMYGVANRPNGTAHKYFASAPYKIAAKSGTAQVFGLKANETYNAHKIAERLRDHKLMTAFAPYNNPQVAVAMILENGGAGPAVGTLMRQILDHIMLGDNNTDLPAENPAVAAAEDH
notes: PBP2, peptidoglycan transpeptidase of the E. coli elongasome, wild type; mKO-PBP2 in all others; also called mKO-PBP2^WT; mKO-PBP2; source: E. coli LMC500, expressed from plasmid (15 uM IPTG), in fixed cells; not shown: mKO (donor construct, pWA004) or mCherry (acceptor construct), N-terminal, kept
B5: mCh-MreB^SW (natural protein, E. coli, UniProt P0A9X4 1-347, looked up)
chain: MLKKFRGMFSNDLSIDLGTANTLIYVKGQGIVLNEPSVVAIRQDRAGSPKSVAAVGHDAKQMLGRTPGNIAAIRPMKDGVIADFFVTEKMLQHFIKQVHSNSFMRPSPRVLVCVPVGATQVERRAIRESAQGAGAREVFLIEEPMAAAIGAGLPVSEATGSMVVDIGGGTTEVAVISLNGVVYSSSVRIGGDRFDEAIINYVRRNYGSLIGEATAERIKHEIGSAYPGDEVREIEVRGRNLAEGVPRGFTLNSNEILEALQEPLTGIVSAVMVALEQCPPELASDISERGMVLTGGGALLRNLDRLLMEETGIPVVVAEDPLTCVARGGGKALEMIDMHGGDLFSEE
notes: MreB of E. coli with mCherry inserted inside the chain (sandwich fusion); also called sandwich fusion of MreB-mCherry-MreB; source: E. coli LMC500, expressed from plasmid (15 uM IPTG), in fixed cells

What all share (experiment): FRET or BRET; two-plasmid spectral FRET in E. coli LMC500 cells; mCherry fusion as acceptor, mKO fusion as donor; Gb4 medium, steady state at 28 C, 15 uM IPTG for two mass doublings, FAGA-fixed; acceptor FRET efficiency (EfA) by spectral unmixing
Series [1] deals with B4. The conditions noted are these: partners not purified.
The target of another series is T1, mKO-PBP2^L61R (E. coli, UniProt P0AD65 1-633, L61R).
T1 construct: PBP2 of E. coli with L61R (hyperactive variant); made from pWA004 by mutagenesis PCR; also called hyperactive PBP2^L61R; source: E. coli LMC500, expressed from plasmid (15 uM IPTG), in fixed cells; not shown: mKO, N-terminal, kept
T1 sequence (looked up): B4 chain with L61R
The conditions noted are these: partners not purified.

Series [2] concerns the molecule itself.
The target in series [3] is T2, RodA (wild type), fused to mCherry or to mKO (E. coli, UniProt P0ABG7 1-370).
T2 construct: RodA, peptidoglycan glycosyltransferase of the E. coli elongasome; wild-type rodA gene; mCh-RodA in all others; also called mCh-RodA; mKO-RodA; source: E. coli LMC500, expressed from plasmid (15 uM IPTG), in fixed cells; not shown: mCherry (acceptor construct, pSAV047-RodA) or mKO (donor construct, pXL56), N-terminal, kept
T2 sequence (looked up): B2 chain with R207Q
The conditions noted are these: partners not purified.

Numbering of substitutions follows the chain as printed. Numbers in names are those of the source.

Turning to B1, the “EfA (acceptor FRET efficiency)” value was found to be 5.1% in series [1] and 5.3% in the series with mKO-PBP2^L61R. As for B2, the “EfA (acceptor FRET efficiency)” value in series [1] was 12.7%. As to B3, the “EfA (acceptor FRET efficiency)” value in series [1] is 12.5%. For B4, in series [2], the “EfA (acceptor FRET efficiency)” value was 9.2%. For B5, the “EfA (acceptor FRET efficiency)” value in series [3] was found to be 7.2%.

For the origin of these results see PMC7793260, “MreC and MreD balance the interaction between the elongasome proteins PBP2 and RodA” (PLoS Genetics, 2020).
